In the nanobody polyreactivity screen of Harvey et al. (2022):

Assay: yeast display, Sf9 membrane polyspecificity reagent, FACS + sequencing; frameworks hold sequencing errors
In short: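 A nanobody's polyreactivity label depends on the gate it was sorted from. Yeast display cells were stained with 10% biotinylated, detergent-solubilized Sf9 membrane reagent for 1 hour at 4 °C, enriched on streptavidin microbeads and sorted by FACS. The low and high (top ~1%) gates were set on anti-HA fluorescence for expression and streptavidin fluorescence for reagent binding.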

QVQLVESGGGLVQAGGSLRLRCAASGLTFRYYAMGWYRQAPGKERELVAAISRTGRTNYSDSVKGRFTISRDNAKNTVYLQMNSLKPEDTAVYYCAATGIYAKALLWYDYWGQGTQVTVSS
polyreactivity (PSR sort gate): high polyreactivity

QVELVESGGGLVQAGGSLRLSCAASGSTFSINAMGWYRQAPGKERELVADITWRGVRTYYADSVKGRFTISRDNAKNTVYLQMNSLKPEDTAVYYCAADVVVDGHPGFDYWGQGTQVTVSS
polyreactivity (PSR sort gate): high polyreactivity

QVQLVESGGGLVQAGGSLRLSCAASGRTLDVNAMGWYRQAPGKERELVAAISYSGGITYYADSVKGRFTISRDNAKNTVYLQMNSLKPEDTAVYYCAVVGGYPSYTVDYWGQGTQVTVSS
polyreactivity (PSR sort gate): low polyreactivity

QVQLVESGGGLVQAGGSLRLSCAASGSTIYTYAMGWYRPAPGKERELVAAISYRAGSTYYADSVKGRFTISRDNAKTSVYFQMNSLTPEDTAVYYCNVDGVVVGTKRGGYDYWGQGTQVTVSS
polyreactivity (PSR sort gate): low polyreactivity

QVQLVESGGGLVQAGGSLRLSCAASGRTFRWYAMGWYRQAPGKERELVADISSVGSTDYADSVKGRFTISRDNAKNTVYLQMNSLKPEDTAVYYCAADFSPRRYHNRSFGYWGQGTQVTVSS
polyreactivity (PSR sort gate): low polyreactivity

QVQLVESGGGLVQAGGSLRLSCAASGFTFPWNVMGWYRQAPGKERELVAAITYDGGGTYADSVKGRFTISRDNAKNTVYLQMNSLKPEDTAVYYSNADLIYGEEYDYWGQGTQVTVSS
polyreactivity (PSR sort gate): low polyreactivity

QVQLVESGGGLVQAGGSLRLSCAASGSTFDIYAMGWYRQAPGKEREMVAAIDFSGGSTYYADSVKGRFTISRDNAKNTVYLQMNSLKPEDTAVYYCAADVQKHFYSFGDERGFPFDYWGQATQVTVSS
polyreactivity (PSR sort gate): low polyreactivity

QVQLVESGGGLVQAGGSLRLSCAASGFTIYRYAMGWYRQAPGKERELVAAITSRGGSTYYADSVKGRFTISRDNAKNTVYLQMNSLKPEDTAVYYCAAAGYYPAYDYWGQGTQVTVSS
polyreactivity (PSR sort gate): high polyreactivity

QVQLVESGGGLVQAGGSLRLRCAASGRTFYGYAMGWYRQAPGKEREFVAAITYTGGRTYYADSVKGRFTISRDNAKNTVYLQMNSLKPEDTAVYYCNAYYYYVNQGRFEYGYWGQGTQVTVSS
polyreactivity (PSR sort gate): high polyreactivity

QVQLVESGGGLVQAGGSLRLSCAASGSIFGGYAMGWYRQAPGKERELVAAISSGGSTYYADSVKGRFTISRDNAKNTVYLQMNSLKPEDTAVYYCNADRGNWWDYGRAYGYDYWGQGTQVTVSS
polyreactivity (PSR sort gate): low polyreactivity

QVQLVESGGGLVQAGGSLRLSCAASGFIFVGYGMGWYRQAPGKERELVAVITASGGSTYYADSVKGRFTISRDYAKKTVYLQMNSLKPEATAVYYCAARVGRYGYSEYYYWGHGTQVTVSS
polyreactivity (PSR sort gate): high polyreactivity

QVQLVESGGGLVQAGGSLRLSCAASGSIFDGYAMGWYRQAPGKERELVAAISASGVRTYYADSVKGRFTISRDNAKNTVYLQMNSLKPEDTAVYYCAAAVYYGQSVWYYYWGQGTQVTVSS
polyreactivity (PSR sort gate): high polyreactivity

QVQLVESGGGLVQAGGSLRLSCAASGSTFYKYAMGWYRQAPGKERELVAAISRGGSTYYADSVKGRFTISRDNAKNTVYLQMNSLKPEDTAVYYCAAETVSYYSKYDYWGQGTQVTVSS
polyreactivity (PSR sort gate): low polyreactivity

QVQLVESGGGLVQAGGSLRLSCAASGIIFGSYAMGWYRQAPGKEREFVADISKGDSTYYADSVKGRFTISRDNAKNTVYLQMNSLKPEDTAVYYCAVDSWRRALWYYGRYGYWGQGTQVTVSS
polyreactivity (PSR sort gate): low polyreactivity

QVQLVESGGGLVQAGGSLRLSCAASGSTFVYYAMGWYRQAPGKERELVAAISTSAGSTYYADSVKGRFTISRDNAKNTVYLQMNSLKPEDTAVYYCAAGRYYRGYYWGQGTQVTVSS
polyreactivity (PSR sort gate): high polyreactivity

QVQLVESGGGLLQAGGSLRLSCAASGSIFRYYAMGWYRQAPGKERELVATISTGGRTYYADSVKGRFTISRDNAKNTVYLQMNSLKPEVTAVYYCAAVRLTWTAKYNYWGQGTQVTVSS
polyreactivity (PSR sort gate): high polyreactivity

QVQLHQSGGGLVQAGGTLRLSCAPSGNISVTYNMGWYRQAPGKEREFVAGNSTGATTNYADSVTGRFTISRDNAKNSVYLQMNSLKPEDTAVYYCAAHIYRQDHFYYWGQGTQVTVSS
polyreactivity (PSR sort gate): low polyreactivity

QVQLVESGGGLVQAGGSLRISCAASGNIFYRNGMGWYRQAPGKEREFVAAISRRGGSTYYADSVKGRFTISRDNAKNTVYLQMNSLKTEDTAVYYCATRYWPTNKGEYWGQGTQLTVSS
polyreactivity (PSR sort gate): high polyreactivity

QVQLVESGGGLVQAGGSLRLSCAASGSIFYRNTMGWYRQAPGKERELVAAITTSGGSTYYADSVKGRFTISRDNAKNTVYLQMNSLKPEDTAVYYCAARTWERWYRYYYWGQGTQVTVSS
polyreactivity (PSR sort gate): high polyreactivity

QVQLVESGGGLVQAGGSLRLSCAASGFIFGYYAMGWYRQAPGKERELVAAITRSGGSTRYADSVKGRFTISRDNANNNVYLQMNSLKPEDSAVYYCATRDGTHGYWGQGTQVTASS
polyreactivity (PSR sort gate): high polyreactivity

QDQLVESGGGLVQAGGSLRLSCAASGRTFRAYAMGWSRQAPGKERELVASISRRGGSTYYADSVKGRFTISRDNAKNTDYLQMNSLNPEDTAVYYCAASDKYLQYDDWGQGTEVTVSS
polyreactivity (PSR sort gate): high polyreactivity

HVQQQESGGGLVQAGGSLRLSCAASGNISYSRNMGWYRQAPGKERELVAAIDRGAITYYADSVQGRFTISRDNAKNTVYLQIYSLKPEDTAVYYCAAEYHDRWDHRYWGQGTQVTVSS
polyreactivity (PSR sort gate): high polyreactivity

QVQLVESGGGLVQAGGSLRLSCGASGFTFYGYAMGWYRHGPGKESELVAAITGSGARTNYADSVKGRFTISRDKAKNTVYLQMNSLKPEDTAVYYCNKVGVTRDGSTYRVREDDYWGQGTQVTVSS
polyreactivity (PSR sort gate): high polyreactivity

QVQLVESGGGLVQAGGSLRLSCAASGSIVGYYAMGWYRQAPGKEREFVARISSSTDSTYYADSVKGRFTISRDNAKKTVYLQMNSLKPEDTAVYYCNADDTWYYGYWGQGTQVTVSS
polyreactivity (PSR sort gate): low polyreactivity

QVQLQESGGGLVQAGGSLRLSCAASGSIFDGFYMGWYRQAPGKEREFVAAISYGASTYYADSVKGRFTVSRDNAKNSVYLQMNSLKPEDTAVYYCAVYDELYHVLVYWGRGTQVTVSS
polyreactivity (PSR sort gate): low polyreactivity

QVQLVESGGGLVQAGGSLRLSCAASGSTFQRYVIGWYRQAPGKERELVAAITRTGASTYYADSVKGRFTISRDNAKNTVYLQMNSLKPEDTAVYYCAARYRLGSYTYDYSGQGTQVTVSS
polyreactivity (PSR sort gate): high polyreactivity

QVQLVESGGGLVQAGGSLRLSCAASGRTFYFYAMGWYRQAPGKERELVAAITWSDGTTYYADSVKGRFTISRDNAKNTVYLHMNSLKPEDTAVYYCAARVRIYGRRYNYWGQGTQVTVSS
polyreactivity (PSR sort gate): high polyreactivity

QVQLVESGGGLVQAGGSLRLSCAASGSIFDYNAMGWYRQAPGKERELVAAISGSGVRTYYADSVKGRFTISRDNAKNTVYLQMNSLKPEDTAVYYCAAAVGRPRREYDYWGQGTQVTVSS
polyreactivity (PSR sort gate): high polyreactivity

QVQLVESGGGLVQAGGSLRLSCAASGSTFYSNAMGWYRQAPGKERELVDSISWSSGSTYYADSVKGRFTISRDNAKNTVYLQMNSLKPEDTAVYYCATDAGGPYRFGYWGQGTQVTVSS
polyreactivity (PSR sort gate): low polyreactivity

QVQLVESGGGLVQAGGSLRLSCAASGFIFAYYTMGWYRQAPGKERELVAAISWSGGTTYYADSVKGRFTISRDNAKNTVYLQMNSLKPEDTAVYYCNAYPKWLGYYEDDYWGQGTQVTVSS
polyreactivity (PSR sort gate): low polyreactivity

QVQLVESGGGLVQAGGSLRLSCAASGSTFVSYAMGWYRQAPGKERDFVAAITWSGGSTYYADSVKGRFTISRDNAKNTVYLQMNSLKPEDTAVYYCNARTGRSPTGFRYWGQGTQVTVSS
polyreactivity (PSR sort gate): high polyreactivity

QVQLVESGGGLVQAGGSLRLRCADSGRTFRYNAMGWYRQAPGKERELVAGIRWSGDRTYYADSVKGRFTISHDNAKNTVYLQMNSLKPEDTAVYSCNKVYHPGYGVRATYDYWGQGTQVTVSS
polyreactivity (PSR sort gate): high polyreactivity
